Test results reported in the supplement of paper PMC12042874.
± gives the uncertainty stated by the source.

test: amyloid nucleation score (Sup35N fusion, yeast selection) (log enrichment); library NNK3; higher = more nucleation; inactive = no reads after selection
Outline: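 In psi-negative yeast, Sup35N fusions carrying peptides of 20 random codons were induced with 100 μM copper sulfate for 24 hours. The cells then grew 7 days at 30°C on medium lacking adenine and uracil, and plasmid inserts from input and output were Illumina-sequenced, excluding sequences with under 100 input reads. Nucleation score is the DiMSum log enrichment of output over input reads, centred on the mode score of non-aggregating sequences.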

| Substance | amyloid nucleation score |
| --- | --- |
| FLRYGCMHYLGRMGLY | -0.079 ± 0.34 |
| FLSEIGADTTKSYWDTIPRF | -1.2 ± 2.5 |
| FLSGVTWHAYMIHSVFMDRC | 0.881 ± 0.21 |
| FLVNEEPVQLHGAPVRYFKF | -0.504 ± 1.1 |
| FLYRDDDHSYVSESDLNSCS | inactive |
| FMCNNRSILGICIFYDLRRN | 2.64 ± 0.081 |
| FMGADVAQRMFYKSANGCEW | inactive |
| FMGQFIYLSSRCNSSVDSEV | inactive |
| FMGTRTKLMALVYQEELSRS | inactive |
| FMKEVSGRQDLLRPIMIHNA | inactive |
| FMLWYSPKLFG | inactive |
| FMVDTHFGNAFCFYMYCC | 2.26 ± 0.051 |
| FMVMRVPRCPVDCNVPGGIN | inactive |
| FMYSFDLWYKRLNCLMMLVF | inactive |
| FNALSWSVDFLWYARTTCVD | inactive |
| FNAYNIFVKVPNVMPSS | 2.19 ± 0.09 |
| FNCSARNYGTRFFCLMRAGV | -0.654 ± 1.4 |
| FNDNVVVVSDNVVRRITSKS | inactive |
| FNIGFSSDSYAPWLFMICEM | inactive |
| FNILSLSRTSNYPRHCLFRL | inactive |
| FNMCLASQAVIADLWVVFSW | -0.054 ± 1.3 |
| FNSKRW | inactive |
| FNVVMSRYIYYCVMGVIRMS | inactive |
| FPILS | inactive |

| Substance | amyloid nucleation score |
| --- | --- |
| FPKLWLFNYYVNRRIRSSSF | inactive |
| FPSVIINLGISFFLSSELIV | 1.08 ± 0.11 |
| FPWFTEASPPEMKLDK | 0.816 ± 0.23 |
| FQARTPACPYVCSS | inactive |
| FQFCS | inactive |
| FQSDRVCFIGGWTSNRVGWM | 0.699 ± 0.28 |
| FQYKVSFPDRRASQKRWPLP | inactive |
| FRASVPPEVLPKFARVGMNA | inactive |
| FRDCMVINDMVVWDFCTSCA | inactive |
| FRITNWLSLYDKTEISHASI | inactive |
| FRLILM | inactive |
| FRLVGNIRTFYGYR | inactive |
| FRMNSLRVSLMESVCSSHT | 1.1 ± 0.11 |
| FRPGLYSYMPSC | -0.451 ± 0.88 |
| FRPLFSESHYPASLTGTGHN | inactive |
| FRRYRRCDLGLLSSMRPSAH | inactive |
| FRVLDRSKKVNYRSFLYLIR | inactive |
| FRVSVIFIFGCHMFGVLMTP | inactive |
| FRVTY | inactive |
| FRYNDFMRD | inactive |
| FRYPIYGFFGMTGPTNSLTA | inactive |
| FRYVVHTESYTIESVEVIR | 1.22 ± 0.094 |
| FSAPL | inactive |
| FSCCITNPTYTYCWEMVGVS | inactive |

| Substance | amyloid nucleation score |
| --- | --- |
| FSCDHLGWLVVSVCSGLRWL | inactive |
| FSFPCRTVAWFWYDFHFIGL | inactive |
| FSFYFQDNTIKRWEAIED | inactive |
| FSIRDSTTLKVPEECLSTWI | inactive |
| FSKFQTYVSHMVVYGIMSGN | inactive |
| FSKIHI | inactive |
| FSLDVDDGVFS | inactive |
| FSLRVGMKVHISKIRLGCCK | inactive |
| FSLTLCWHWSWVQCAGVPWG | 2.05 ± 0.097 |
| FSMAFYMYG | 0.163 ± 0.25 |
| FSMWCVSCN | inactive |
| FSNGMVLFF | inactive |
| FSNVRDFGFGKDY | inactive |
| FSPCISDCGVDESIKVLRKM | inactive |
| FSPTIGTTWDTLMF | inactive |
| FSRFSNAFPKNCWVLLVENS | inactive |
| FSSNTT | inactive |
| FSSSPR | inactive |
| FSVMYRWRYFGDSAFWISVF | inactive |
| FSVSASEKHFFSCVMLYCVS | 0.935 ± 0.1 |
| FSYCDGRLLSSNRYYSESLY | inactive |
| FSYCSLWGKCVCDIFTNGQL | 2.81 ± 0.051 |
| FTAQRGSTCHPYVRKHEYI | inactive |
| FTAWTLLLSGMFVIASANMA | inactive |

| Substance | amyloid nucleation score |
| --- | --- |
| FTCDTMKYSSRYSLFYVRVS | 0.205 ± 0.77 |
| FTNNI | inactive |
| FTPDVRWLNVLNSHNGVIEV | inactive |
| FTYGMSSVFVGHF | inactive |
| FVAVVSRDISNYSRGRSEKR | inactive |
| FVERTRKRVNVRRNRHVTET | inactive |
| FVFCLEGTGGVFDFGFGIGI | inactive |
| FVLHNS | inactive |
| FVLIIYLLACSEMLFVFKEV | inactive |
| FVLRTNWGGISVYIYDVCSC | -0.238 ± 1.1 |
| FVNCLCKRARYYSSGGLSSP | -0.512 ± 1.4 |
| FVSYRESKKDMQACCALCRS | 0.965 ± 0.11 |
| FVVVHLSVKSIVPAFVSWDR | -0.36 ± 0.84 |
| FVVYL | inactive |
| FVWNMFSASLIKI | inactive |
| FVYWNLSAYVRILVVDGNGR | inactive |
| FWCIGEIRCTYMWRSQCFCV | inactive |
| FWGFAFPFTSHGGPKNLEES | inactive |
| FWGFPRKSYADMMGSTRGSA | inactive |
| FWGMLVEYLVNSQCYIKFE | inactive |
| FWGWLARTNLKILSILFNLI | inactive |
| FWLRAVSLSWLMIEKKYMLR | inactive |
| FWMILMDMLFMRLGSL | inactive |
| FWMRFKHDW | 1.29 ± 0.16 |

| Substance | amyloid nucleation score |
| --- | --- |
| FWSSFAMRAYSVIWYTLSTC | inactive |
| FWYFYSKEFTRQDLVDLNVM | inactive |
| FYCLHSMLKMGEDVRAMNLD | inactive |
| FYDAWRIFLSYFRLSLLTNV | inactive |
| FYFYSVCYYGRWIKKPCHLR | inactive |
| FYGECKSVSGNCLTMNGRYT | -0.561 ± 0.59 |
| FYIKVVNPCIPYT | inactive |
| FYKVYSVRLEHFCKCGIECN | inactive |
| FYNRPKWLFVLGPENILCDS | inactive |
| FYRSFSPSYNLYMYGIYDR | 2.77 ± 0.067 |
| FYSCKSTAGCSTTIEGARNY | inactive |
| FYSTAMCGED | inactive |
| FYTWLPCVYSN | -0.335 ± 1.7 |
| FYYDRVTLRGNTNLGDLMHG | 1.69 ± 0.076 |
| FYYIVIFSNHWPSCILCRGR | 0.792 ± 0.28 |
| FYYSWSVFCICMYR | inactive |
| GAGCNVVAAATARSRDGDWS | 0.212 ± 0.93 |
| GAHWNASSHICGRKD | inactive |
| GALAKFLLISKTMRVDMRMV | inactive |
| GAMWLSCT | inactive |
| GANSGFRGIDGLLPALDKQE | inactive |
